# Source: patent US20240270818A1 (PETMEDIX, published 2024)
# Like-named read-outs stand apart in the source and are kept apart here.
# Key:
# [1] = target: NGF (species not stated at the place) (Homo sapiens (Human), UniProt P01138 122-241); assay: cell-based or functional assay
# [2] = target: T1, human Nerve Growth Factor (human, UniProt P01138 122-241); assay: SPR (Biacore 8K), fusion captured on Protein A chip, hNGF as analyte, multi-cycle kinetics
# T1 construct: Bought recombinant protein; also called hNGF; human NGF
# Experimental: (§1) Binding affinity of fusion proteins to human and rat NGF was assessed using Biacore 8K (Cytiva). Briefly, Protein A Sensor Chip (Cytiva) was docked into Biacore 8K, equilibrated for 30′ at RT and then Running Buffer (10 mM HEPES pH7.4 150 mM NaCl 3 mM EDTA and 0.005% Tween20) was applied to the SPR chip surface.
# (§2) These were immobilised using 90 see association at 10 uL/min as capturing step, followed by injection of running buffer to remove any unbound product.
# (§3) Kinetics were assessed using multi-cycle kinetics with capture step method (30 see association-300 see dissociation) followed by regeneration step (0.1M Glycine pH2.2 contact time 60 see FR 30 uL/min). Kinetics quantification have been performed using Biacore Insight following standard analyses methods.
# [3] = target: T1, human Nerve Growth Factor; assay: cell-based or functional assay
# [4] = target: T2, rat Nerve Growth Factor (rat, UniProt P25427 122-241, limits assumed); assay: SPR (Biacore 8K), fusion captured on Protein A chip
# T2 construct: Bought recombinant protein; also called rNGF; rat NGF
# Experimental: as §1, §2, §3
# [5] = target: T1, human Nerve Growth Factor; assay: as above
# Experimental: as §1, §2, §3
# [6] = target: NGF (species not stated at the place) (Homo sapiens (Human)) (UniProt P01138); assay: cell-based or functional assay
# [7] = target: NGF (species not stated at the place) (Homo sapiens (Human)) (UniProt P01138); assay: cell-based or functional assay; remark: listed apart in the source
# T2 sequence (P25427 122-241 limits assumed): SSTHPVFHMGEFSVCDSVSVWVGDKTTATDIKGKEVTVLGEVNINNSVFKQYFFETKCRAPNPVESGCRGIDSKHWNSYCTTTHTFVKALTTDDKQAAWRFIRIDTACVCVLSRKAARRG
# T1 sequence (P01138 122-241 limits assumed): as the sequence (P25427 122-241 limits assumed) above, with T3S, V6I, M9R, T37M, A60D, E65D, T92M, D94G, A117V, G120A counted along it
Binder,"Bottom (%), PathHunter TrkA activation assay [1] [%]","IC50 (nM), PathHunter TrkA activation assay [1] [nM]","Top (%), PathHunter TrkA activation assay [1] [%]",Kd [2] [nM],"IC50 (nM), inhibition of TF-1 cell proliferation [3] [nM]","ICMAX (%), inhibition of TF-1 cell proliferation [3] [%]",binding result [4],fold reduced affinity relative to PetML 119 wt [5] [fold],"Bottom (%), PathHunter TrkA activation assay [6] [%]","Top (%), PathHunter TrkA activation assay [6] [%]","TrkA inhibition, PathHunter luminescence [6] [%]","Bottom (%), PathHunter TrkA activation assay [7] [%]","Top (%), PathHunter TrkA activation assay [7] [%]"
"PetML 119-S109Y (canine p75NTR ECD S109Y-canine IgGB wt Fc) (Fc fusion, Signal peptide (first 19 residues) left out as for m1) KEACPTGLYTHSGECCKACNLGEGVAQPCGANQTVCEPCLDSVTFSDVVSATEPCKPCTECVGLQSMSAPCVEADDAVCRCAYGYYQDETTGRCEACRVCEAGSGLVFYCQDRQNTVCEECPDGTYSDEANHVDPCLPCTVCEDTERQLRECTRWADAECEEIPGRGGGGRENGRVPRPPDCPKCPAPEMLGGPSVFIFPPKPKDTLLIARTPEVTCVVVDLDPEDPEVQISWFVDGKQMQTAKTQPREEQFNGTYRVVSVLPIGHQDWLKGKQFTCKVNNKALPSPIERTISKARGQAHQPSVYVLPPSREELSKNTVSLTCLIKDFFPPDIDVEWQSNGQQEPESKYRTTPPQLDEDGSYFLYSKLSVDKSRWQRGDTFICAVMHEALHNHYTQKSLSHSPGK",7.79,2.15,87.3,0.225,2.15,93.5,binds,–,–,–,–,–,–
"PetML 119-V133R (canine p75NTR ECD V133R-canine IgGB wt Fc) (Fc fusion, Signal peptide (first 19 residues) left out as for m1) KEACPTGLYTHSGECCKACNLGEGVAQPCGANQTVCEPCLDSVTFSDVVSATEPCKPCTECVGLQSMSAPCVEADDAVCRCAYGYYQDETTGRCEACRVCEAGSGLVFSCQDRQNTVCEECPDGTYSDEANHRDPCLPCTVCEDTERQLRECTRWADAECEEIPGRGGGGRENGRVPRPPDCPKCPAPEMLGGPSVFIFPPKPKDTLLIARTPEVTCVVVDLDPEDPEVQISWFVDGKQMQTAKTQPREEQFNGTYRVVSVLPIGHQDWLKGKQFTCKVNNKALPSPIERTISKARGQAHQPSVYVLPPSREELSKNTVSLTCLIKDFFPPDIDVEWQSNGQQEPESKYRTTPPQLDEDGSYFLYSKLSVDKSRWQRGDTFICAVMHEALHNHYTQKSLSHSPGK",14.3,2.56,49.3,0.346,5.06,80.5,binds,–,–,–,–,–,–
"PetML 119-D134L (canine p75NTR ECD D134L-canine IgGB wt Fc) (Fc fusion, Signal peptide (first 19 residues) left out as for m1) KEACPTGLYTHSGECCKACNLGEGVAQPCGANQTVCEPCLDSVTFSDVVSATEPCKPCTECVGLQSMSAPCVEADDAVCRCAYGYYQDETTGRCEACRVCEAGSGLVFSCQDRQNTVCEECPDGTYSDEANHVLPCLPCTVCEDTERQLRECTRWADAECEEIPGRGGGGRENGRVPRPPDCPKCPAPEMLGGPSVFIFPPKPKDTLLIARTPEVTCVVVDLDPEDPEVQISWFVDGKQMQTAKTQPREEQFNGTYRVVSVLPIGHQDWLKGKQFTCKVNNKALPSPIERTISKARGQAHQPSVYVLPPSREELSKNTVSLTCLIKDFFPPDIDVEWQSNGQQEPESKYRTTPPQLDEDGSYFLYSKLSVDKSRWQRGDTFICAVMHEALHNHYTQKSLSHSPGK",53.7,20.8,82.7,6.8,329,70.5,–,20,–,–,–,–,–
"PetML 119-E75T (canine p75NTR ECD E75T-canine IgGB wt Fc) (Fc fusion, Signal peptide (first 19 residues) left out as for m1) KEACPTGLYTHSGECCKACNLGEGVAQPCGANQTVCEPCLDSVTFSDVVSATEPCKPCTECVGLQSMSAPCVEATDAVCRCAYGYYQDETTGRCEACRVCEAGSGLVFSCQDRQNTVCEECPDGTYSDEANHVDPCLPCTVCEDTERQLRECTRWADAECEEIPGRGGGGRENGRVPRPPDCPKCPAPEMLGGPSVFIFPPKPKDTLLIARTPEVTCVVVDLDPEDPEVQISWFVDGKQMQTAKTQPREEQFNGTYRVVSVLPIGHQDWLKGKQFTCKVNNKALPSPIERTISKARGQAHQPSVYVLPPSREELSKNTVSLTCLIKDFFPPDIDVEWQSNGQQEPESKYRTTPPQLDEDGSYFLYSKLSVDKSRWQRGDTFICAVMHEALHNHYTQKSLSHSPGK",44.5,82.6,72.6,12.4,18.2,72.5,–,40,–,–,–,–,–
"PetML 119-S109H (canine p75NTR ECD S109H-canine IgGB wt Fc) (Fc fusion, Signal peptide left out as for m1; If the listing holds it too, the entry is 425 residues long) KEACPTGLYTHSGECCKACNLGEGVAQPCGANQTVCEPCLDSVTFSDVVSATEPCKPCTECVGLQSMSAPCVEADDAVCRCAYGYYQDETTGRCEACRVCEAGSGLVFHCQDRQNTVCEECPDGTYSDEANHVDPCLPCTVCEDTERQLRECTRWADAECEEIPGRGGGGRENGRVPRPPDCPKCPAPEMLGGPSVFIFPPKPKDTLLIARTPEVTCVVVDLDPEDPEVQISWFVDGKQMQTAKTQPREEQFNGTYRVVSVLPIGHQDWLKGKQFTCKVNNKALPSPIERTISKARGQAHQPSVYVLPPSREELSKNTVSLTCLIKDFFPPDIDVEWQSNGQQEPESKYRTTPPQLDEDGSYFLYSKLSVDKSRWQRGDTFICAVMHEALHNHYTQKSLSHSPGK",10.3,2.2,48.3,0.267,0.17,88.5,binds,–,–,–,–,–,–
"PetML 119 (canine p75NTR ECD-canine IgGB wt Fc protein fusion) (Fc fusion, The end, 422, is my own count; also called WT molecule) KEACPTGLYTHSGECCKACNLGEGVAQPCGANQTVCEPCLDSVTFSDVVSATEPCKPCTECVGLQSMSAPCVEADDAVCRCAYGYYQDETTGRCEACRVCEAGSGLVFSCQDRQNTVCEECPDGTYSDEANHVDPCLPCTVCEDTERQLRECTRWADAECEEIPGGGGRENGRVPRPPDCPKCPAPEMLGGPSVFIFPPKPKDTLLIARTPEVTCVVVDLDPEDPEVQISWFVDGKQMQTAKTQPREEQFNGTYRVVSVLPIGHQDWLKGKQFTCKVNNKALPSPIERTISKARGQAHQPSVYVLPPSREELSKNTVSLTCLIKDFFPPDIDVEWQSNGQQEPESKYRTTPPQLDEDGSYFLYSKLSVDKSRWQRGDTFICAVMHEALHNHYTQKSLSHSPGK",9.5,8.04,–,0.309,4.46,73.1,binds,–,–,–,–,–,–
"Bedinvetmab (antibody, INN chains, looked up, V domains shown) VH: EVQLVESGGDLVKPGGSLRLSCVASGFTFSSHGMHWVRQSPGKGLQWVAVINSGGSSTYYTDAVKGRFTISRDNAKNTVYLQMNSLRAEDTAMYYCAKESVGGWEQLVGPHFDYWGQGTLVIVSS VL: QSVLTQPTSVSGSLGQRVTISCSGSTNNIGILGASWYQLFPGKAPKLLVYGNGNRPSGVPDRFSGADSGDSVTLTITGLQAEDEADYYCQSFDTTLGAHVFGGGTHLTVL",–,–,–,–,–,–,–,–,5.35,123,100,2.11,93.5
